Data as given in patent US20190209659, “STABLE LIQUID FIBRINOGEN” (LABORATOIRE FRANCAIS DU FRACTIONNEMENT ET DES …, published 2019).

Tests used:
fibrinogen (plasma) [1] = molecular target: T1, fibrinogen (plasma) (Homo sapiens, UniProt P02671-2;P02675;P02679-2 P02671-2:20-644,P02675:31-491,P02679-2:27-437); experiment: competition; 2 uM variant with 0.4 uM fibrinogen over immobilised SEQ 66 (SPR); among highest affinity; conditions: tags: human plasma purified, 95% or 99.9% purity; semi-purified and plasma used in chromatography; chain copies: 2
Procedure: (§1) In order to compare the affinity of the designed variants with that of the parental aptamer, a concurrent test was conducted. Firstly, a 1 μM solution of the aptamer of SEQ ID NO 66 was prepared using binding buffer. The aptamer solution was heated to 90° C. for 5 min, incubated in ice for 5 min and balanced at the ambient temperature for 10 min. The preparation was injected into a sensor chip coated with streptavidin SA from Biacore T200 instrument (GE Healthcare) at a rate of 10 μl/min for 7 min. Then, mixtures containing a variant (2 μM) and the human plasma fibrinogen (0.4 μM) were injected on the aptamer immobility at a rate of 30 μl/min for 1 minute. The response obtained for the various fragment/fibrinogen mixtures was compared.

fibrinogen (plasma) [2] = molecular target: T1, fibrinogen (plasma); experiment: competition; significant inhibition of fibrinogen binding to immobilised SEQ 66 (SPR); conditions: tags: human plasma purified, 95% or 99.9% purity; semi-purified and plasma used in chromatography; chain copies: 2
Procedure: as §1

fibrinogen (plasma) [3] = molecular target: T1, fibrinogen (plasma); experiment: SPR; 250 nM fibrinogen, pH 6.3; resists 0.5 M NaCl; conditions: tags: human plasma purified, 95% or 99.9% purity; semi-purified and plasma used in chromatography; chain copies: 2
[4] = molecular target: T2, fibrinogen (transgenic, human) (Homo sapiens, UniProt P02671-2;P02675;P02679-2 P02671-2:20-644,P02675:31-491,P02679-2:27-437); experiment: SPR; stated strong affinity for plasma and transgenic fibrinogen, pH 6.3; conditions: tags: purified from transgenic cow milk, 97% purity; chain copies: 2
fibrinogen (plasma) [5] = molecular target: T1, fibrinogen (plasma); experiment: SPR; stated strong affinity, pH-dependent; conditions: tags: human plasma purified, 95% or 99.9% purity; semi-purified and plasma used in chromatography; chain copies: 2
[6] = molecular target: T2, fibrinogen (transgenic, human); experiment: SPR; stated strong affinity, pH-dependent; conditions: tags: purified from transgenic cow milk, 97% purity; chain copies: 2
fibrinogen (plasma) [7] = molecular target: T1, fibrinogen (plasma); experiment: SPR; dose-dependent 125-1000 nM, pH 6.3, MOPS, NaCl 150 mM, MgCl2 5 mM; resists 0.5 M NaCl, eluted at pH 7.4; conditions: tags: human plasma purified, 95% or 99.9% purity; semi-purified and plasma used in chromatography; chain copies: 2
Procedure: (§2) Each solution of human plasma fibrinogen was injected at pH 6.3 in such a way that a complex was formed in a dose-dependent manner as shown by the increase in the signals depending on the concentration of fibrinogen. […] The fibrinogen was then released from the complex by an elution buffer at pH 7.40. The solid support was then regenerated by injection of a solution of NaOH 50 mM. X-axis: time in s. Y-axis: SPR response in arbitrary unit.
(§3) The chosen aptamer was synthesised with biotin and a spacer of triethylene glycol at the end 5′ of the oligonucleotide. A solution 1 μM of the aptamer was prepared using the SELEX selection buffer. The aptamer solution was heated to 90° C. for 5 min, incubated in ice for 5 min and balanced at the ambient temperature for 10 min. The preparation was injected into a sensor chip coated with streptavidin SA from Biocore T200 instrument (GE Healthcare) at a debit of […] for 7 min. Then, various concentrations of the target were injected onto the immobilised aptamer at a rate of 30 μl/min for 1 minute. After a dissociation for 1-2 min, a step of washing was carried out via injection of a suitable wash buffer at a rate of 30 μl/min for 1 min. For the elution, a suitable elution buffer was injected at a rate of 30 μl/min for 1-2 min. […] During the experiment, the response signal was recorded in a sensorgram.

[8] = molecular target: T2, fibrinogen (transgenic, human); experiment: SPR; dose-dependent 125-1000 nM, pH 6.3; resists 0.5 M NaCl, eluted at pH 7.4; conditions: tags: purified from transgenic cow milk, 97% purity; chain copies: 2
Procedure: as §2, with “transgenic” for “human plasma”
as §3

[9] = molecular target: T2, fibrinogen (transgenic, human); experiment: SPR; dose-dependent 125-1000 nM, pH 6.3; resists 1 M NaCl, eluted at pH 7.4 with 2 M MgCl2; conditions: tags: purified from transgenic cow milk, 97% purity; chain copies: 2
Procedure: as §2, with “transgenic” for “human plasma”, “7.40 and containing MgCl₂ 2 M.” for “7.40.”
as §3

fibrinogen (plasma) [10] = molecular target: T1, fibrinogen (plasma); experiment: as above; conditions: tags: human plasma purified, 95% or 99.9% purity; semi-purified and plasma used in chromatography; chain copies: 2
Procedure: as §2, with “7.40 and containing MgCl₂ 2 M.” for “7.40.”
as §3

T2 sequence (P02671 other isoform, or with tags, fused parts or gaps, chain 1 of 3): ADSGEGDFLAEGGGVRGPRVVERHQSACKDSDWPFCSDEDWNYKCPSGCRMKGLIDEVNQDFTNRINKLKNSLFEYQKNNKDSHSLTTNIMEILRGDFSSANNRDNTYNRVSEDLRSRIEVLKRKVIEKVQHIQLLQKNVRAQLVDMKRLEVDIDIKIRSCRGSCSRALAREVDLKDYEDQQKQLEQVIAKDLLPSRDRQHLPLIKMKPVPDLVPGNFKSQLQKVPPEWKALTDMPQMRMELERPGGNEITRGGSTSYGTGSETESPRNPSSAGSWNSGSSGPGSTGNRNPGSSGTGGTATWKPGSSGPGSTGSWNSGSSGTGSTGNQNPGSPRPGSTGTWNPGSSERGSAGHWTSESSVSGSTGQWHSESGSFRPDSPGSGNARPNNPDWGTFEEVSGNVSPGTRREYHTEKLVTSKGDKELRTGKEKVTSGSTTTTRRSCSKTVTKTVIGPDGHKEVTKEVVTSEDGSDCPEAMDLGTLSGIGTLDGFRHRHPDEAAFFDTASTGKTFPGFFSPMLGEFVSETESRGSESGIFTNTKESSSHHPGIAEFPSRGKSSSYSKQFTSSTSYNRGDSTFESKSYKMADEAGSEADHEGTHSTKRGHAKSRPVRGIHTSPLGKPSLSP
T2 sequence (P02675 31-491, chain 2 of 3): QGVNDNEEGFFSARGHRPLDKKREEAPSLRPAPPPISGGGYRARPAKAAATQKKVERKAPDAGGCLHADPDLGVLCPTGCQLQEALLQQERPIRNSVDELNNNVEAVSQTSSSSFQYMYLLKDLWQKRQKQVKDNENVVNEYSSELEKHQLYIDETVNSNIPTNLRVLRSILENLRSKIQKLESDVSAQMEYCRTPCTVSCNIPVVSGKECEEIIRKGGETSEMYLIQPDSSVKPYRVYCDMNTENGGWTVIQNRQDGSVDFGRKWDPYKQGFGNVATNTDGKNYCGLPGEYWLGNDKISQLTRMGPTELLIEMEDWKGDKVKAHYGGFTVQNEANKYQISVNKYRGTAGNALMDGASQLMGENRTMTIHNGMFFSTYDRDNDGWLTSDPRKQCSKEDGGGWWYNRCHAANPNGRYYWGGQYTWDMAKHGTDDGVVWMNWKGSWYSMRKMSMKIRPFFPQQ
T2 sequence (P02679 other isoform, or with tags, fused parts or gaps, chain 3 of 3): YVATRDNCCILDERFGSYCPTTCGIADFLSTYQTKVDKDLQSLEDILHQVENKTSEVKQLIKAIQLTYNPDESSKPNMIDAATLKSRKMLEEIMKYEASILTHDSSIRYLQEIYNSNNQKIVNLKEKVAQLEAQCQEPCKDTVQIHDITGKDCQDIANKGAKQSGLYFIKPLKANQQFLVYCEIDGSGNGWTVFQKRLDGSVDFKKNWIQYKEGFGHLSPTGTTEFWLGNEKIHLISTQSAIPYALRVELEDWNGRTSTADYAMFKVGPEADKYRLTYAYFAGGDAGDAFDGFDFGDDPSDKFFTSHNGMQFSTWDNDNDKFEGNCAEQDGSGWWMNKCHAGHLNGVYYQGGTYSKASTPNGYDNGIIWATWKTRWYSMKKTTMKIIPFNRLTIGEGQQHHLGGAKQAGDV
T1 sequence (P02671 other isoform, or with tags, fused parts or gaps, chain 1 of 3): as the sequence (P02671 other isoform, or with tags, fused parts or gaps, chain 1 of 3) above
T1 sequence (P02675 31-491, chain 2 of 3): as the sequence (P02675 31-491, chain 2 of 3) above
T1 sequence (P02679 other isoform, or with tags, fused parts or gaps, chain 3 of 3): as the sequence (P02679 other isoform, or with tags, fused parts or gaps, chain 3 of 3) above

B1: SEQ ID NO 81 variant (ssDNA)
DNA: GTCAATGCCAGGTCTCCCTGGAATCCGCCACCCGCATTAGAACCAGGGTTGAC
binding result (fibrinogen (plasma) [1]): binds

B2: SEQ ID NO 85 variant (ssDNA)
DNA: GTCAATGCCAGGTCGACCTGGAATCCGCCACCCGCATTAGAACCAGGGTTGAC
binding result (fibrinogen (plasma) [1]): binds

B3: SEQ ID NO 91 variant (ssDNA)
DNA: GTCAATGCCAGTCGGACCTGGAATCCGCCACCCGCATTAGAACCAGGGTTGAC
binding result (fibrinogen (plasma) [2]): binds

B4: SEQ ID NO 60 aptamer (ssDNA)
DNA: GGGTCAATGCCAGGTCTCTGCGTACTTATCTCGATGTGGTTGGTAGGGATAGGTGTATATCGGCTCGCAAGCAGTC
modifications: 5' biotin-triethylene glycol
binding result (fibrinogen (plasma) [3]): binds | binding result [4]: binds

B5: SEQ ID NO 80 variant (deletion 1/2) (ssDNA)
DNA: GTCAATGCCAGGTCTCGGACCTGGAATCCGCCACCCGCATTAGAACCAGGGTTGAC
binding result (fibrinogen (plasma) [1]): binds

GTCAATGCCAGTCGCTGGAATCCGCCACCCGCATTAGAACCAGGGTTGAC (ssDNA) [SEQ ID NO 82 variant]
binding result (fibrinogen (plasma) [1]): binds

B6: SEQ ID NO 87 variant (ssDNA)
DNA: GTCAATGCCAGGTCTCACCTGGAATCCGCCACCCGCATTAGAACCAGGGTTGAC
binding result (fibrinogen (plasma) [1]): binds

B7: SEQ ID NO 88 variant (ssDNA)
DNA: GTCAATGCCAGGTCGGACCTGGAATCCGCCACCCGCATTAGAACCAGGGTTGAC
binding result (fibrinogen (plasma) [2]): binds

B8: SEQ ID NO 58 aptamer (ssDNA)
DNA: GGGTCAATGCCAGGTCTCAACTTTCGCGTGTGGTTGGTAGGGCTAGGTGTATACGCATATCGGCTCGCAAGCAGTC
modifications: 5' biotin-triethylene glycol
binding result (fibrinogen (plasma) [5]): binds | binding result [6]: binds

B9: SEQ ID NO 66 (A5-1.9 base sequence) (ssDNA)
DNA: GGGTCAATGCCAGGTCTCGGACCTGGAATCCGCCACCCGCATTAGAACCAGGGTTGAC
modifications: 5' biotin-triethylene glycol (SPR); 5' amino-C6 spacer and 3' inverted dT (affinity support)
binding result (fibrinogen (plasma) [7]): binds | binding result [8]: binds

B10: SEQ ID NO 65 aptamer (ssDNA)
DNA: GGGTCAATGCCAGGTCTCGAGCCGGTGTTGTGTTATGTTGGTAGGGAAGGTGTATAATATCGGCTCGCAAGCAGTC
modifications: 5' biotin-triethylene glycol
binding result (fibrinogen (plasma) [3]): binds | binding result [4]: binds

B11: SEQ ID NO 1 aptamer (ssDNA)
DNA: GGGTCAATGCCAGGTCTCGGACCTGGAATCCGCCACCCGCATTAGAACCAGGGTTGACATCGGCTCGCAAGCAGTC
modifications: 5' biotin-triethylene glycol
binding result (fibrinogen (plasma) [5]): binds | binding result [6]: binds

B12: SEQ ID NO 67 (A5-2.9 base sequence) (ssDNA)
DNA: CGCGTGTGGTTGGTAGGGCTAGGTGTATACGCAT
modifications: 5' biotin-triethylene glycol (SPR); 5' amino-C6 spacer and 3' inverted dT (affinity support)
binding result [9]: binds | binding result (fibrinogen (plasma) [10]): binds

B13: SEQ ID NO 90 variant (ssDNA)
DNA: GTCAATGCCAGGTCTCGGACCTGGAATCCGCCACCCGCATAGAACCAGGGTTGAC
binding result (fibrinogen (plasma) [2]): binds

B14: SEQ ID NO 92 variant (ssDNA)
DNA: GTCAATGCCAGGTCTCGGACCTGGAATCCGCCACCCGCTTAGAACCAGGGTTGAC
binding result (fibrinogen (plasma) [2]): binds

B15: SEQ ID NO 89 variant (ssDNA)
DNA: GTCAATGCCAGGTCTCGGACCTGGAATCCGCCACCCGCATTAGAACCAGGGTTGA
binding result (fibrinogen (plasma) [2]): binds

B16: SEQ ID NO 83 variant (ssDNA)
DNA: GTCAATGCCAGGTCTCCTGGAATCCGCCACCCGCATTAGAACCAGGGTTGAC
binding result (fibrinogen (plasma) [1]): binds

B17: SEQ ID NO 84 variant (ssDNA)
DNA: GTCAATGCCAGGTCACCTGGAATCCGCCACCCGCATTAGAACCAGGGTTGAC
binding result (fibrinogen (plasma) [1]): binds

B18: SEQ ID NO 93 variant (ssDNA)
DNA: GTCAATGCCAGCGGACCTGGAATCCGCCACCCGCATTAGAACCAGGGTTGAC
binding result (fibrinogen (plasma) [2]): binds

B19: SEQ ID NO 86 variant (ssDNA)
DNA: GTCAATGCCAGGTCGCCTGGAATCCGCCACCCGCATTAGAACCAGGGTTGAC
binding result (fibrinogen (plasma) [1]): binds
